No end group written: not given here.
Tests used:
biotinylated BMP-2 = molecular target: T1, biotinylated BMP-2 (Homo sapiens, UniProt P12643); assay: Amplified luminescent proximity homogenous assay (ALPHA); type: binding; conditions: chemically synthesized peptides, FIG. 6, normalized to molar concentration
T1 construct: purchased R&D Systems 355-BM/CF
T1 sequence (P12643 283-396): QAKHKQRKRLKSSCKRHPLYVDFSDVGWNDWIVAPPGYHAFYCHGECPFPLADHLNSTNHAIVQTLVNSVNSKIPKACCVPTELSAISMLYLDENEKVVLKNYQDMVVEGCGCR
Method: Concentration dependent binding efficiency of BMP-2 to the affinity peptides was evaluated using an ALPHA assay.
Diluted stock of biotinylated BMP-2 (R&D Systems, Minneapolis, Minn., Item number 355-BM/CF) at 3.3 micrograms/ml was prepared in 2× assay buffer (PBS, 0.01% Tween-80, 0.05% BSA). Chemically synthesized peptides having SEQ ID NO: 1, SEQ ID NO: 2, SEQ ID NO: 3, and SEQ ID NO: 6 were prepared using standard, automated Fluorenylmethyloxycarbonyl (Fmoc) solid phase peptide synthesis procedures. Each peptide solution for the assay was prepared from a 100 microgram/mL stock solution. The stock solution was serially diluted in ½ log steps in assay buffer resulting in peptide concentrations of 100, 33.3, 11.1, 3.70, 1.23, 0.41, 0.14, 0.046, 0.015, 0.0051, 0.0017 and 0.00056 micrograms/mL. Subsequently, serially diluted peptides were added to the corresponding wells containing the 10 microliters of the 3.3 microgram/mL solution of biotinylated BMP-2. Final assay test concentration for biotinylated BMP-2 was 0.825 micrograms/mL. Final peptide concentrations were 25, 8.3, 2.8, 0.93, 0.31, 0.10, 0.03, 0.01, 0.003, 0.001, 0.0003 and 0.0001 micrograms/mL. Next, Nickel (Ni)-acceptor and streptavidin (SA)-donor beads (Perkin Elmer, Waltham, Mass., Item number 6760619M) were diluted 1:100 in assay buffer prior to adding 20 microliters to each test well. Controls included BMP-2 alone in three different concentrations as well as SA beads with no peptide. The plate was made light-safe with an aluminum seal and shaken for 45 minutes on a table-top shaker at room temperature. The emission of the plate was read using a dual wavelength fluorometer (Perkin Elmer (Waltham, Mass.) Envision 2101 Multilabel Reader).
The ALPHA data in FIG. 6 was normalized to molar concentration based on the molecular weights of the peptide sequences.

[1] = test system: MCHT-1/26 cells (mouse osteoblast cell line); assay: Alkaline phosphatase bioactivity assay in the presence of BMP-2; type: cell-based; conditions: peptide at 16, 160 and 800 nM, BMP-2 0-1000 ng/ml, 3 days, FIG. 7
Method: In this experiment, we determined if the affinity peptides would interfere with the cell surface receptor binding to BMP-2 using mouse osteoblasts. The alkaline phosphatase (ALP) production was monitored the presence of BMP-2 with and without affinity peptides.
Passage two MCHT-1/26 cells (mouse osteoblast cell line) were plated out in a 96 well plate the night before at 4500 cells/well. Cells were stimulated with serial dilution of BMP-2 in a range 0-1000 ng/ml in the presence or absence of 3 dilutions of peptide SEQ ID NO: 6 at 16, 160 and 800 nM. After incubation at 37° C. for 3 days, cells were lysed with lysis buffer (250 mM NaCl, 25 mM MgCl2 and 100 mM Tris, pH=8.0) overnight at 37° C. One third of the lysate was used for alkaline phosphatase assay with p-nitrophenylphosphate. The reaction was carried out at 37° C. for one to two hours. Next, the plate was read on an absorbance plate reader at a wavelength of 405 nm.

hIgG = assay: Cross-reactivity phage ELISA assay toward hIgG; type: binding, human; conditions: relative luminescence, N=2
Method: (§1) In this experiment, we are confirming the binding of the phage identified in Example 1 to BMP-2.
(§2) 96-well black ELISA plates were coated with streptavidin (Rows A through D), hIgG (Rows E and F) and human serum albumin (Rows G and H), at a concentration of 5 micrograms/mL in PBS. Plates were incubated overnight at 4° C. Plates were washed 3 times with TBST using a plate washer. To the streptavidin-coated wells in rows C and D, 100 microliters of a 4 micrograms/mL solution of biotinylated-BMP-2 (R&D Systems, Minneapolis, Minn., Item number 355-BM/CF), was introduced and allowed to sit at room temperature for 30 minutes. To all other wells, 100 microliters of PBS was introduced. The plates were again washed 3 times with TBST using the plate washer. The wells were then blocked with 250 microliters of a 3% dehydrated milk suspension in TBST and allowed to sit at room temperature for a minimum of 1 hour. Using phage concentrations determined by the phage titrations, dilutions of the phage stock solutions were performed in a separate 96-well plate to result in phage concentrations of 10^10, 10^9, 10^8, 10^7, 10^6 and 10^5 phage/well. […] The luminescence was read using a luminometer set with a gain of 150.
(§3) The phage ELISA data in FIG. 3, FIG. 4 and FIG. 5 show relative luminescence and have an N value of 2. […]

[2] = molecular target: human serum albumin (HSA) (Homo sapiens, UniProt P02768); assay: Cross-reactivity phage ELISA assay toward human serum albumin; type: binding; conditions: relative luminescence, N=2
Method: as §1, §2, §3

BMP-2 = molecular target: T2, BMP-2 (Homo sapiens, UniProt P12643); assay: Mutant phage ELISA (serine scan); type: binding; conditions: FIG. 11A, FIG. 11B
T2 construct: purchased R&D Systems 355-BM/CF
T2 sequence (P12643 283-396): T1 sequence (P12643 283-396)
From the text: Mutants of SEQ ID NO: 3 and SEQ ID NO: 6 were constructed by performing a serine scan where residues of the wild type were substituted with serine. […] SEQ ID NO: 24 through SEQ ID NO: 28 are mutants of SEQ ID NO: 3. SEQ ID NO: 29 through SEQ ID NO: 32 are mutants of SEQ ID NO: 6.
The respective custom oligonucleotide was obtained from Integrated DNA Technologies. The oligonucletides were inserted into the pIX gene using standard protocols. First, the oligonucletides were phosphorylated using T4 polynucleotide kinase. Next, the phosphorylated oligonucletides were annealed to the ssDNA template. Using the Kunkel method, the annealed DNA was ligated using T4 DNA ligase and T7 DNA polymerase. The resultant DNA was isolated using isopropanol precipitation and a gel was run to confirm the reaction. Lastly, electro-competent E. coli cells were transformed with the purified DNA and were plated out onto 2xYT/Tet/Xgal agar plates and allowed to grow overnight to isolate single colonies. An aliquot of the transformed cells was allowed to grow overnight at 37° C. while shaking in 50 mL 2xYT/tet media. The phage were then PEG precipitated following the procedure in Example 1. A phage titration was performed to determine the concentration of phage for the ELISA assay as described in Example 2. ELISA assays were performed following the procedure in Example 3.

AGRDSFNLLTSSPLPST [SEQ ID NO: 6]
ranking according to concentration-dependent binding to BMP-2 (biotinylated BMP-2): SEQ ID NO: 6>SEQ ID NO: 3>SEQ ID NO: 2>SEQ ID NO: 1 | effect on the ALP production of mouse osteoblasts [1]: minimal effect

AGYTSFALLKSAESTLP [SEQ ID NO: 3]
ranking according to concentration-dependent binding to BMP-2 (biotinylated BMP-2): SEQ ID NO: 6>SEQ ID NO: 3>SEQ ID NO: 2>SEQ ID NO: 1

SEQ ID NO: 1: affinity peptide toward BMP-2 identified by pIX phage display, sequence in FIG. 1 (AGLPLQSMSRLSYDSLS)
ranking according to concentration-dependent binding to BMP-2 (biotinylated BMP-2): SEQ ID NO: 6>SEQ ID NO: 3>SEQ ID NO: 2>SEQ ID NO: 1

SEQ ID NO: 2: affinity peptide toward BMP-2 identified by pIX phage display, sequence in FIG. 1 (AGPPGPYIAASAFLALK)
ranking according to concentration-dependent binding to BMP-2 (biotinylated BMP-2): SEQ ID NO: 6>SEQ ID NO: 3>SEQ ID NO: 2>SEQ ID NO: 1

SEQ ID NO: 4: affinity peptide toward BMP-2 identified by pIX phage display, sequence in FIG. 1 (AGFRWWHTQPAHTLSYT)
cross-reactivity with hIgG (hIgG): binds to both hIgG and HSA | cross-reactivity with HSA [2]: binds to both hIgG and HSA

SEQ ID NO: 33: a fragment of SEQ ID NO: 3, shown in FIG. 12 (AGYTSFALLKS)
binding to BMP-2 in mutant phage ELISA (BMP-2): important for binding to BMP-2

SEQ ID NO: 34: a fragment of SEQ ID NO: 6, shown in FIG. 12 (AGRDSFNLLTS)
binding to BMP-2 in mutant phage ELISA (BMP-2): important for binding to BMP-2

— patent US8629106B2, “Affinity peptides toward BMP-2” (Janssen Biotech, Inc., priority 2010, dated 2014)
